± gives the uncertainty stated by the source.

These results are taken from the supplement of paper PMC7877785.

This series can be described thus: self-splicing fitness, log relative to wild type (ln ratio); higher = more splicing; Tetrahymena group I intron in knt gene, E. coli kanamycin selection, DiMSum; sequences stand for … in CUCUCU…GGAGGGAAAAGUUAUCAGGCAUGCACCUGGUAGCUAGUCUUUAAACCAAUAGAUUGCAUCGGUUUAAAAGGCAAGACCGUCAAAUUGCGGGAAAGGGGUCAACAGCCGUUCAGUACCAAGUCUCAGGGGAAACUUUGAGAUGGCCUUGCAAAGGGUAUGGUAAUAAGCUGACGGACAUGGUCCUAACCACGCAGCCAAGUCCUAAGUCAACAGAUCUUCUGUUGAUAUGGAUGCAGUUCACAGACUAAAUGUCGGUCGGGGAAGAUGUAUUCUUCUCAUAAGAUAUAGUCGGACCUCUCCUUAAUGGGAGCUAGCGGAUGAAGUGAUGCAACACUGGAGCCGCUGGGAACUAAUUUGUAUGCGAAAGUAUAUUGAUUAGUUUUGGAGUACUCGUGGUCG
The method, boiled down: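 Colonies from six replicate transformations of E. coli BL21(DE3) were pooled and amplicon-sequenced on an Illumina HiSeq 2500. The library placed an intron with all eight P1ex-region nucleotides randomised inside the knt kanamycin-resistance gene on pET-22b(+), and cells grew overnight at 37°C or 30°C on LB agar with or without 25 μg/mL kanamycin (plus 100 μg/mL carbenicillin, 50 μM IPTG, 0.2% rhamnose). Fitness is the DiMSum error-weighted combination of wild-type-normalised replicate fold changes, kanamycin versus none.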

Take CUAAAGCAAUAUUACGGGCA: the “self-splicing fitness (ln)” value by setting is: (30 °C) -3.06 ± 0.14; (37 °C) -2.54 ± 0.21.
Taken in the same sequence, the figures for CUAAAGCAAUAUUACGGGUA were -4.44 ± 0.32 and -2.3 ± 0.3.
For CUAAAGCAAUAUUACGGUGG, in that order: -0.649 ± 0.064 and -0.0443 ± 0.08.
Consider CUAAAGCAAUAUUACGUCAA, for which the “self-splicing fitness (ln)” value by setting is: (30 °C) -4.32 ± 0.32; (37 °C) -2.08 ± 0.28.
CUAAAGCAAUAUUACGUCCU: the “self-splicing fitness (ln)” value is, setting by setting: (30 °C) -3.29 ± 0.24; (37 °C) -1.92 ± 0.26.
For CUAAAGCAAUAUUACGUCGC, in that order: -3.42 ± 0.15 and -2.63 ± 0.23.
Consider CUAAAGCAAUAUUACGUCUU, for which the “self-splicing fitness (ln)” value by setting is: (30 °C) -3.95 ± 0.22; (37 °C) -3.24 ± 0.3.
For CUAAAGCAAUAUUACGUGUC, in that order: -3.88 ± 0.2 and -2.85 ± 0.25.
Take CUAAAGCAAUAUUACGUUUA: the “self-splicing fitness (ln)” value is, setting by setting: (30 °C) -4.12 ± 0.16; (37 °C) -2.81 ± 0.17.
Taken in the same sequence, the figures for CUACAGCAAUAUUACGACCU were -4.15 ± 0.46 and -0.863 ± 0.17.
On to CUACAGCAAUAUUACGACGG, for which the “self-splicing fitness (ln)” value reads like this: (30 °C) -0.839 ± 0.063; (37 °C) -0.265 ± 0.095.
Turning to CUACAGCAAUAUUACGAGAC, the “self-splicing fitness (ln)” value (30 °C) was -4.15 ± 0.2 and the “self-splicing fitness (ln)” value (37 °C) is -2.59 ± 0.16.
As to CUACAGCAAUAUUACGAUCU, the “self-splicing fitness (ln)” value by setting is: (30 °C) -4.26 ± 0.37; (37 °C) -1.9 ± 0.45.
For CUACAGCAAUAUUACGCAAU, the “self-splicing fitness (ln)” value is, setting by setting: (30 °C) -3.8 ± 0.4; (37 °C) -2.86 ± 0.4.
Regarding CUACAGCAAUAUUACGCCAC, under “30 °C”, the “self-splicing fitness (ln)” value was -3.68 ± 0.33.
Consider CUACAGCAAUAUUACGCCCG, for which the “self-splicing fitness (ln)” value is 0.0629 ± 0.15 (30 °C) and -0.112 ± 0.14 (37 °C).
Consider CUACAGCAAUAUUACGCCGU, for which the “self-splicing fitness (ln)” value is, setting by setting: (30 °C) -3.2 ± 0.19; (37 °C) -2.06 ± 0.29.
For the sequence CUACAGCAAUAUUACGCGAC, the “self-splicing fitness (ln)” value (30 °C) is -1.03 ± 0.072 and the “self-splicing fitness (ln)” value (37 °C) was -0.76 ± 0.11.
Taken in the same sequence, the figures for CUACAGCAAUAUUACGCGAU were -2.35 ± 0.095 and -0.252 ± 0.092.
On to CUACAGCAAUAUUACGCGGU, for which the “self-splicing fitness (ln)” value reads like this: (30 °C) -3.49 ± 0.3; (37 °C) -2.17 ± 0.28.
CUACAGCAAUAUUACGCGUU: the “self-splicing fitness (ln)” value (30 °C) is -4.43 ± 0.23 and the “self-splicing fitness (ln)” value (37 °C) was -2.37 ± 0.21.
For the sequence CUACAGCAAUAUUACGCUAA, the “self-splicing fitness (ln)” value by setting is: (30 °C) -2.93 ± 0.28; (37 °C) -2.29 ± 0.29.
Consider CUACAGCAAUAUUACGCUGA, for which the “self-splicing fitness (ln)” value (30 °C) was -3.41 ± 0.28.
For CUACAGCAAUAUUACGCUGC, the “self-splicing fitness (ln)” value is -2.88 ± 0.22 (30 °C) and -1.77 ± 0.35 (37 °C).
On to CUACAGCAAUAUUACGCUUA, for which the “self-splicing fitness (ln)” value runs as follows: (30 °C) -3.44 ± 0.19; (37 °C) -2.65 ± 0.19.
Taken in the same sequence, the figures for CUACAGCAAUAUUACGGAUC were -4.11 ± 0.3 and -2.51 ± 0.26.
CUACAGCAAUAUUACGGGAG: the “self-splicing fitness (ln)” value was -2.62 ± 0.11 (30 °C) and -1.96 ± 0.12 (37 °C).
On to CUACAGCAAUAUUACGGGUU, for which the “self-splicing fitness (ln)” value runs as follows: (30 °C) -3.18 ± 0.11; (37 °C) -2.94 ± 0.12.
For CUACAGCAAUAUUACGGUGG, the “self-splicing fitness (ln)” value was -4.48 ± 0.21 (30 °C) and -2.71 ± 0.15 (37 °C).
Consider CUACAGCAAUAUUACGUCCA, for which the “self-splicing fitness (ln)” value (30 °C) was -3.07 ± 0.25 and the “self-splicing fitness (ln)” value (37 °C) was -1.3 ± 0.24.
Turning to CUACAGCAAUAUUACGUGCU, the “self-splicing fitness (ln)” value (37 °C) was -2 ± 0.13.
As for CUACAGCAAUAUUACGUGUC, the “self-splicing fitness (ln)” value was -3.95 ± 0.14 (30 °C) and -2.73 ± 0.15 (37 °C).
In the case of CUAGAGCAAUAUUACGACGA, the “self-splicing fitness (ln)” value (30 °C) was -3.35 ± 0.13 and the “self-splicing fitness (ln)” value (37 °C) was -1.36 ± 0.13.
CUAGAGCAAUAUUACGACGU: the “self-splicing fitness (ln)” value by setting is: (30 °C) -3.28 ± 0.3; (37 °C) -0.837 ± 0.26.
Taken in the same sequence, the figures for CUAGAGCAAUAUUACGACUU were -4.26 ± 0.27 and -2.51 ± 0.25.
For CUAGAGCAAUAUUACGAGAA, in that order: -2.62 ± 0.35 and -2.5 ± 0.45.
Take CUAGAGCAAUAUUACGAGAG: the “self-splicing fitness (ln)” value is, setting by setting: (30 °C) -0.641 ± 0.071; (37 °C) -0.393 ± 0.099.
CUAGAGCAAUAUUACGAUGU: the “self-splicing fitness (ln)” value by setting is: (30 °C) -3.45 ± 0.3; (37 °C) -2.2 ± 0.31.
CUAGAGCAAUAUUACGCACC: under “30 °C”, the “self-splicing fitness (ln)” value was -2.44 ± 0.41.
On to CUAGAGCAAUAUUACGCAUA, for which the “self-splicing fitness (ln)” value runs as follows: (30 °C) -2.97 ± 0.27; (37 °C) -2.93 ± 0.4.
Taken in the same sequence, the figures for CUAGAGCAAUAUUACGCCUG were -0.0979 ± 0.087 and 0.825 ± 0.12.
Regarding CUAGAGCAAUAUUACGCUGC, the “self-splicing fitness (ln)” value runs as follows: (30 °C) -3.8 ± 0.33; (37 °C) -2.33 ± 0.33.
Taken in the same sequence, the figures for CUAGAGCAAUAUUACGCUUC were -2.21 ± 0.42 and -1.97 ± 0.3.
Taken in the same sequence, the figures for CUAGAGCAAUAUUACGGACG were 0.0877 ± 0.07 and 0.427 ± 0.097.
Take CUAGAGCAAUAUUACGGCUU: the “self-splicing fitness (ln)” value (30 °C) is -2.92 ± 0.24 and the “self-splicing fitness (ln)” value (37 °C) was -1.94 ± 0.26.
For CUAGAGCAAUAUUACGGGCC, the “self-splicing fitness (ln)” value by setting is: (30 °C) -2.86 ± 0.34; (37 °C) -1.76 ± 0.34.
As to CUAGAGCAAUAUUACGGUAU, the “self-splicing fitness (ln)” value (37 °C) is -1.76 ± 0.49.
CUAGAGCAAUAUUACGUAGA: the “self-splicing fitness (ln)” value by setting is: (30 °C) -3.37 ± 0.16; (37 °C) -1.5 ± 0.15.
Taken in the same sequence, the figures for CUAGAGCAAUAUUACGUCUU were -3.52 ± 0.18 and -2.27 ± 0.22.
For the sequence CUAUAGCAAUAUUACGACCG, the “self-splicing fitness (ln)” value by setting is: (30 °C) 0.239 ± 0.18; (37 °C) 0.785 ± 0.27.
Regarding CUAUAGCAAUAUUACGAGCU, for the setting “30 °C”, the “self-splicing fitness (ln)” value was -1.79 ± 0.48.
As for CUAUAGCAAUAUUACGAUUG, the “self-splicing fitness (ln)” value by setting is: (30 °C) -0.58 ± 0.097; (37 °C) 0.313 ± 0.13.
For the sequence CUAUAGCAAUAUUACGCGCC, the “self-splicing fitness (ln)” value (30 °C) was -1.01 ± 0.43.
For the sequence CUAUAGCAAUAUUACGCUUU, the “self-splicing fitness (ln)” value (30 °C) is -4.86 ± 0.45 and the “self-splicing fitness (ln)” value (37 °C) is -3.17 ± 0.28.
For the sequence CUAUAGCAAUAUUACGGAGA, the “self-splicing fitness (ln)” value (30 °C) is -2.82 ± 0.3 and the “self-splicing fitness (ln)” value (37 °C) is -1.38 ± 0.33.
Regarding CUAUAGCAAUAUUACGGCAG, the “self-splicing fitness (ln)” value by setting is: (30 °C) -1.51 ± 0.13; (37 °C) -0.425 ± 0.13.
On to CUAUAGCAAUAUUACGGGCC, for which the “self-splicing fitness (ln)” value (30 °C) was -1.54 ± 0.36.
In the case of CUAUAGCAAUAUUACGGGGU, the “self-splicing fitness (ln)” value reads like this: (30 °C) -4.1 ± 0.2; (37 °C) -2.83 ± 0.28.
In the case of CUAUAGCAAUAUUACGUAGG, the “self-splicing fitness (ln)” value is, setting by setting: (30 °C) -1.44 ± 0.085; (37 °C) -0.685 ± 0.13.
Take CUCAAGCAAUAUUACGAAAC: the “self-splicing fitness (ln)” value (30 °C) is -3.86 ± 0.32 and the “self-splicing fitness (ln)” value (37 °C) was -1.55 ± 0.17.
On to CUCAAGCAAUAUUACGAAAU, for which the “self-splicing fitness (ln)” value was -4.62 ± 0.46 (30 °C) and -2.14 ± 0.17 (37 °C).
As to CUCAAGCAAUAUUACGAACU, the “self-splicing fitness (ln)” value is, setting by setting: (30 °C) -3.03 ± 0.2; (37 °C) -1.27 ± 0.17.
